One block for each molecule: values may come before it.
Legend:
[1] = molecular target: Rap1, full-length, N-terminal His6-tag, labelled with Alexa Fluor 594 (human) (UniProt Q9NYB0); experiment: fluorescence polarisation; fluorescence anisotropy; TRF2 titrated into 100 nM Rap1 labelled with Alexa Fluor 594; PBST (Phosphate Buffered Saline with Tween 20, ~140 mM NaCl); concentration as TRF2 dimer
[2] = molecular target: Rap1, full-length, N-terminal His6-tag, labelled with Alexa Fluor 594 (human) (UniProt Q9NYB0); experiment: fluorescence polarisation; fluorescence anisotropy; TRF2 titrated into 100 nM Rap1 labelled with Alexa Fluor 594; 50 mM NaCl, 50 mM sodium phosphate pH 7.0 with 1 mM DTT; concentration as TRF2 dimer
[3] = molecular target: Rap1 without His-tag, labelled with Alexa Fluor 488 (human) (UniProt Q9NYB0); experiment: fluorescence polarisation; fluorescence anisotropy; TRF2noHis titrated into 100 nM Rap1noHis labelled with Alexa Fluor 488; 50 mM NaCl, 50 mM sodium phosphate pH 7.0, 25 C; concentration as TRF2 dimer
Rap1 [4] = molecular target: T1, Rap1 (human, UniProt Q9NYB0 1-399); experiment: EMSA; up to Rap1:DNA 40:1; FA: 50 mM NaCl, 50 mM sodium phosphate pH 7.0, 25 °C, 7.5 nM DNA; EMSA: same buffer, 15 min on ice, 5% (or 4%) PAGE in 0.25x TBE at 4 °C; SPR: PBST; conditions: protein: recombinant; tags: N-terminal His6; label: Alexa Fluor 488 at 3' end of one strand; blunt
T1 sequence: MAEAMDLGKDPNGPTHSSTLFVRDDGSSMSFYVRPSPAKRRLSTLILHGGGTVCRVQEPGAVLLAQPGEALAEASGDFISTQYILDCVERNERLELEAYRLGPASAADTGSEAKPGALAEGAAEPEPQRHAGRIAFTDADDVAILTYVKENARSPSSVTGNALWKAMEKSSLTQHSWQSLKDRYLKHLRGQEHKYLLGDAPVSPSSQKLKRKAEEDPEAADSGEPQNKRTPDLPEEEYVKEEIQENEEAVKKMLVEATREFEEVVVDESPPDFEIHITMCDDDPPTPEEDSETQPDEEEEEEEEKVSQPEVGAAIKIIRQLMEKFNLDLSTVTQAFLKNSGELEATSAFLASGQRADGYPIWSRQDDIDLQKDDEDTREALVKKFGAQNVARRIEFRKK

Rap1 [5] = molecular target: T1, Rap1; experiment: SPR; PBST; FA: 50 mM NaCl, 50 mM sodium phosphate pH 7.0, 25 °C, 7.5 nM DNA; EMSA: same buffer, 15 min on ice, 5% (or 4%) PAGE in 0.25x TBE at 4 °C; SPR: PBST; conditions: protein: recombinant; tags: N-terminal His6; label: 5' biotin on S6; blunt
[6] = molecular target: Telomeric Repeat binding Factor 2 (TRF2), full-length, N-terminal His6-tag (human); experiment: SPR; TRF2 immobilised by amine coupling on ProteOn GLC chip; Rap1 as analyte (methods: 80-5 nM; key of Figure S4A: 160-10 nM); PBST; 240 s injection at 100 ul/min, 1200 s dissociation; equilibrium responses fitted with a simple bimolecular equilibrium model
Rap1 [7] = molecular target: T1, Rap1; experiment: fluorescence anisotropy; FA: 50 mM NaCl, 50 mM sodium phosphate pH 7.0, 25 °C, 7.5 nM DNA; EMSA: same buffer, 15 min on ice, 5% (or 4%) PAGE in 0.25x TBE at 4 °C; SPR: PBST; conditions: protein: recombinant; tags: N-terminal His6; label: Alexa Fluor 488 (FA); 5' biotin on S6 in SPR; 3' overhang 6 nt

Kd [1]: 64 nM
Kd [2]: 44 nM
Molecule: Telomeric Repeat binding Factor 2 (TRF2), full-length, N-terminal His6-tag (natural protein)

Kd [3]: 49 nM
Molecule: TRF2 without His-tag (natural protein)

B1: R5 (dsDNA)
DNA 1: GTTAGGGTTAGGGTTAGGGTTAGGGTTAGGGTTAG
DNA 2: CTAACCCTAACCCTAACCCTAACCCTAACCCTAAC
modifications: 3'-C6 aminoalkyl linker on one strand
binding result (Rap1 [4]): no binding

B2: R2 (dsDNA)
DNA 1: GTTAGGGTTAGGGTTAG
DNA 2: CTAACCCTAACCCTAAC
modifications: 3'-C6 aminoalkyl linker on one strand
binding result (Rap1 [4]): no binding

B3: SR2 (dsDNA)
DNA 1: CTAACTTAGGGTTAGGGTTAG
DNA 2: CTAACCCTAACCCTAAGTTAG
binding result (Rap1 [5]): no binding

Kd [6]: 44 nM
B4: Repressor activator protein 1 (Rap1), full-length, N-terminal His6-tag (natural protein)
chain: T1 sequence

B5: Overhang_SR2 (mixed)
DNA 1: CTAACTTAGGGTTAGGGTTAGGGTTAG
DNA 2: CTAACCCTAACCCTAAGTTAG
binding result (Rap1 [7]): no binding

Source: article PMC4357705, “Human Rap1 modulates TRF2 attraction to telomeric DNA”
